Data reported in patent US20250027060A1 (VIB VZW, published 2025).

Assays:
[1] = biological target: T1, ALKTG-EGFL (human ALK amino acids 648-1025) (human, UniProt Q9UM73 648-1025, N-linked glycans; EndoH-trimmed (deglycosylated) for crystals and SEC-MALLS); assay: ITC at 310 K, ALKTG-EGFL (10 µM) titrated with ALKAL2 (100 µM), one-site model
T1 construct: The C-terminal Fc-His6 tag was removed by caspase 3; also called ALK (in BLI, SEC-MALLS and ITC)
Description: (§1) FIG. 5A and FIG. 5B Isothermal titration calorimetry thermograms for the titration of ALK_TG-EGFL (10 μM) with ALKAL2 (100 μM) (FIG. 5A) and titration of ALKAL1 (25 μM) with ALK_TG-EGFL (210 μM) (FIG. 5B). […] The right panel represents the binding isotherm obtained from the integration of the raw data and fitted to a one-site model. Standard deviations were calculated based on 3 measurements.
(§2) Experiments were performed using a MicroCal PEAQ-ITC instrument at 310K. Proteins used in ITC experiments were expressed in HEK293S cells grown in suspension. As a final purification step all proteins were buffer exchanged to the same HBS buffer via size-exclusion chromatography. Titrations were preceded by an initial injection of 0.5 μL. The injection spacing was optimized per experiment to allow for the signal to get back to a stable baseline. Throughout the titration the sample was stirred at a speed of 750 r.p.m. Data were analyzed using the PEAQ-ITC analysis software (version 1.1.0.1262, Malvern) and fit using a “one set of sites” model.

[2] = biological target: T2, ALKFL (full-length human ALK ectodomain, amino acids 19-1025) (human, UniProt Q9UM73 19-1025); assay: ITC at 310 K, ALKFL (8 µM) titrated with ALKAL2 (82 µM), one-site model
T2 construct: Fc-His6 tag removed by caspase 3; also called full-length ALK ectodomain
T2 sequence (Q9UM73 19-1025): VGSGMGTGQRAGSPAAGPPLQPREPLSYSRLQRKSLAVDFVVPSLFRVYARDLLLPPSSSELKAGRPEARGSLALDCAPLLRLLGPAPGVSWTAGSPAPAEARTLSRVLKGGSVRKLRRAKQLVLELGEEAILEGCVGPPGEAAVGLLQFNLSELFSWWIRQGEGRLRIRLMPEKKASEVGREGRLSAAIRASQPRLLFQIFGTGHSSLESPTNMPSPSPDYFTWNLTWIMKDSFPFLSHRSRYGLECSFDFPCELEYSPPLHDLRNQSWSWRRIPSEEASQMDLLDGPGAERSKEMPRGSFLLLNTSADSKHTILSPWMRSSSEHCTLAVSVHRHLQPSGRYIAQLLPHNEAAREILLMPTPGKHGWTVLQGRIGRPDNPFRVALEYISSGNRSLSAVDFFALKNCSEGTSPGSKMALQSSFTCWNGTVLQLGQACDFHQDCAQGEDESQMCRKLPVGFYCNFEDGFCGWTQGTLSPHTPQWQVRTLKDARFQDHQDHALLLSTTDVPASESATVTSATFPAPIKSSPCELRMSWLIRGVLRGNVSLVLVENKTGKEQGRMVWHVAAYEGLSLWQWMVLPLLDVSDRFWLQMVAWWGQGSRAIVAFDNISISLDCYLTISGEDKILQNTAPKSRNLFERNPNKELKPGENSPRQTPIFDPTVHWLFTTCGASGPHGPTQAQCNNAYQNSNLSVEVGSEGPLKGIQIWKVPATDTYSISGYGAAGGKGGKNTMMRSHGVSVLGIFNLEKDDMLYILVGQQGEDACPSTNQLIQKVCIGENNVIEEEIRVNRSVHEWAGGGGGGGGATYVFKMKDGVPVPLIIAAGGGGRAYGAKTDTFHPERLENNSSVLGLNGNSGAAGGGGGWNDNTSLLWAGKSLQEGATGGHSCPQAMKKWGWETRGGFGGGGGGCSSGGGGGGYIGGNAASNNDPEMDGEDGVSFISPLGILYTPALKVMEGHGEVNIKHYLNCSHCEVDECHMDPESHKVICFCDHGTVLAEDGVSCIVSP

[3] = biological target: T3, LTKTG-EGFL (human LTK amino acids 63-420) (human, UniProt P29376 63-420); assay: ITC at 310 K, LTKTG-EGFL (12 µM) titrated with ALKAL2 (56 µM), one-site model
T3 construct: Fc-His6 tag removed by caspase 3; also called LTK (in BLI, SEC-MALLS and ITC)
T3 sequence: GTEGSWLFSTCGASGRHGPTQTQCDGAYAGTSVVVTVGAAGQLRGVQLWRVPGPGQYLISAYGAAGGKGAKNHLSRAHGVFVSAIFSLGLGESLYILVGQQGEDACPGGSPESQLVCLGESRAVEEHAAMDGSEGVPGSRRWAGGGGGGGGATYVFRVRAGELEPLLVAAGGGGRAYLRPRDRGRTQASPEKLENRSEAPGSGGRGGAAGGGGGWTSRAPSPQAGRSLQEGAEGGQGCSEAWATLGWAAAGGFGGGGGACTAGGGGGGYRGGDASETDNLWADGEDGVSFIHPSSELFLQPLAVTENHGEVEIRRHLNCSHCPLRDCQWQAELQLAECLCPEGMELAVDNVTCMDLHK
Description: (§3) The right panel represents the binding isotherm obtained from the integration of the raw data and fitted to a one-site model. Standard deviations were calculated based on 3 measurements.
as §2

[4] = biological target: T1, ALKTG-EGFL (human ALK amino acids …); assay: ITC, 310 K, one-site model
Description: as §1, §2

[5] = biological target: T1, ALKTG-EGFL (human ALK amino acids …); assay: BLI, biotinylated ALKAL2 on streptavidin biosensors, ALKTG-EGFL in solution 800 nM to 12.5 nM, 1:1 model
Source text: (§4) FIGS. 10A and 10B Representative response curves as measure by biolayer-interferometry (BLI) for the interaction of WT ALKAL1 and ALKAL1 mutants (containing charge-reversal mutations of residues involved in site 1) (FIG. 10A) and WT ALKAL2 and ALKAL2 mutants (FIG. 10B) with ALK_TG-EGFL and LTK_TG-EGFL. For WT ALKALs LTK curves were fitted with a 2:1 binding model (red) while for ALK a 1:1 model was used. Start and end concentrations of the 3-fold dilution series used for the WT measurements is shown as an inset while for all mutants a […] dilution series from 6.4 μM-400 nM was used.
(§5) All measurements of binding kinetics and dissociation constants were performed using an Octet Red 96 (Forté Bio) in assay buffer (20 mM HEPES pH 7.4, 150 mM NaCl, 0.02% (w/v) BSA, 0.002% (v/v) Tween 20) at 298K. ALKALs were immobilized to a level of 0.5 nm on streptavidin-coated biosensors (Forté Bio). To verify that no a specific binding was present during the assay, non-functionalized biosensors were used as a control by measuring in parallel all ligand concentrations as well as running buffer. For all mutants a two-fold dilution series from 6.4 μM-400 nM was employed. Data analysis was performed using the Data Analysis software 9.0.0.14 (Forté Bio) and binding curves were exported to Prism8 (Graphpad Software) for plotting of curves.

[6] = biological target: T3, LTKTG-EGFL (human LTK amino acids …); assay: BLI, biotinylated ALKAL2 on streptavidin biosensors, LTKTG-EGFL in solution 300 nM to 11 nM, 2:1 binding model, component 1
Source text: as §4, §5

[7] = biological target: T3, LTKTG-EGFL (human LTK amino acids …); assay: ITC, 310 K, one-site model, 2:1 stoichiometry
Description: as §3, §2

[8] = biological target: T4, ALKTG (human ALK amino acids 648-985) (human, UniProt Q9UM73 648-985, N-linked glycans; EndoH-trimmed for crystals and SEC-MALLS); assay: ITC
T4 construct: Fc-His6 tag removed by caspase 3; also called ALK TG supradomain
T4 sequence (Q9UM73 648-985 limits assumed): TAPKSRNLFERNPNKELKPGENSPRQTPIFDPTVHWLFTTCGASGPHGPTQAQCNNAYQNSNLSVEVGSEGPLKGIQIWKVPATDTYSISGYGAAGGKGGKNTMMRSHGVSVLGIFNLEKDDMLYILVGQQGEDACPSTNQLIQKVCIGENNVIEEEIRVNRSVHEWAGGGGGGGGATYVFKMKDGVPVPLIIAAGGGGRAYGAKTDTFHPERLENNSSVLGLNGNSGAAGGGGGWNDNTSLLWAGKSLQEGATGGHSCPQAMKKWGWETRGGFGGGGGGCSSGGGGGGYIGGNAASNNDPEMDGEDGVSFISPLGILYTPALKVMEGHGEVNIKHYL
Description: as §2

[9] = biological target: T3, LTKTG-EGFL (human LTK amino acids …); assay: BLI, biotinylated ALKAL2 on streptavidin biosensors, LTKTG-EGFL in solution 300 nM to 11 nM, 2:1 binding model, component 2
Source text: as §4, §5

[10] = biological target: T4, ALKTG (human ALK amino acids 648-985); assay: ITC at 310 K, ALKAL2 (33 µM) titrated with ALKTG (330 µM), one-site model
Description: FIG. 5D, Titration of ALKAL2 (33 μM) with ALKTG (330 μM) Standard deviations were calculated based on 3 measurements.
as §2

[11] = biological target: T5, LTKTG (human LTK amino acids 63-379) (human, UniProt P29376 63-379); assay: ITC at 310 K, LTKTG (10 µM) titrated with ALKAL2 (100 µM), one-site model
T5 construct: also called LTK TG supradomain
T5 sequence: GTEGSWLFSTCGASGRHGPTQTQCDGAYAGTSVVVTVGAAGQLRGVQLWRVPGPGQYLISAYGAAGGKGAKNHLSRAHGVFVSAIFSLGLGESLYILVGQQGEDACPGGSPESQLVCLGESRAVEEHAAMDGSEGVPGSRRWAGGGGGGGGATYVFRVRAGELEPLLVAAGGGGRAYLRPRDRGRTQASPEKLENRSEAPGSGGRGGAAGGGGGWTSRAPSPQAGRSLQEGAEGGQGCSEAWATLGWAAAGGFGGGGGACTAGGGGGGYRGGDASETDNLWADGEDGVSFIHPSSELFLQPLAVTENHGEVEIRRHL
Description: FIG. 12G, ITC experiments for the titration of LTKTG (10 μM) with ALKAL2 (100 μM) Standard deviations were calculated based on 2 measurements.
as §2

[12] = biological target: T3, LTKTG-EGFL (human LTK amino acids …); assay: BLI, biotinylated ALKAL2 H100A on streptavidin biosensors, LTKTG-EGFL in solution, dilution series 6.4 µM-400 nM, biphasic fit, component 1
Source text: as §4, §5

[13] = biological target: T3, LTKTG-EGFL (human LTK amino acids …); assay: BLI, biotinylated ALKAL2 H100A on streptavidin biosensors, LTKTG-EGFL in solution, dilution series 6.4 µM-400 nM, biphasic fit, component 2
Source text: as §4, §5

[14] = biological target: T3, LTKTG-EGFL (human LTK amino acids …); assay: BLI, biotinylated ALKAL2 H100A on streptavidin biosensors, LTKTG-EGFL in solution, dilution series 6.4 µM-400 nM, biphasic fit, component 2; the sheet prints x0^-1, taken as x10^-1
Source text: as §4, §5

[15] = biological target: T3, LTKTG-EGFL (human LTK amino acids …); assay: BLI, biotinylated ALKAL2 R123E on streptavidin biosensors, LTKTG-EGFL in solution, dilution series 6.4 µM-400 nM
Source text: as §4, §5

[16] = biological target: T1, ALKTG-EGFL (human ALK amino acids …); assay: BLI, biotinylated ALKAL2 R123E on streptavidin biosensors, ALKTG-EGFL in solution, dilution series 6.4 µM-400 nM
Source text: as §4, §5

T1 sequence (Q9UM73 648-1025): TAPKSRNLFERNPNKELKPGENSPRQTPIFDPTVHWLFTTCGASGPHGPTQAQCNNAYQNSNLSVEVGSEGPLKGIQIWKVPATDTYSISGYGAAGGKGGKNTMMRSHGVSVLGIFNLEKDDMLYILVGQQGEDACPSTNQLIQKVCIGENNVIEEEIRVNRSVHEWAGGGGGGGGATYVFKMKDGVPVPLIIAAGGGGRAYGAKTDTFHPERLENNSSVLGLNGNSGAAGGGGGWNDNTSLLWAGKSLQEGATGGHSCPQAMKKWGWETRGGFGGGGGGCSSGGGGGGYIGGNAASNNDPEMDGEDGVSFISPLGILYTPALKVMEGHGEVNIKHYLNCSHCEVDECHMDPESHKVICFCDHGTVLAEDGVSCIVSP

B1: ALKAL2 (truncated, residues 78-152) (ligand, human, UniProt Q6UX46 78-152, looked up)
chain: PSPEQRVEIVPRDLRMKDKFLKHLTGPLYFSPKCSKHFHRLYHNTRDCTIPAYYKRCARLLTRLAVSPVCMEDKQ
notes: range 78-152; Tag-free in ITC, SEC-MALLS, crystals and Ba/F3 assays; also called ALKAL2^WT; WT ALKAL2
[1]
  ΔG: -10.6 kcal/mol
  ΔH: -10.1 kcal/mol
[2]
  Kd: 70 nM
  ΔG: -9.4 kcal/mol
  ΔH: -9.7 kcal/mol
[3]
  Kd: 10 nM
  ΔG: -11.4 kcal/mol
  ΔH: -31 kcal/mol
[4]
  Kd: 40 nM
[5]
  Kd: 135 nM
[6]
  Kd: 100 nM
  koff: 0.0037 s⁻¹
  kon: 28000 M⁻¹ s⁻¹
[7]
  Kd: 55 nM
[8]
  fold decrease in affinity against ALKTG-EGFL: 30 fold
[9]
  Kd: 350 nM
  koff: 0.0005 s⁻¹
  kon: 4000 M⁻¹ s⁻¹
[10]
  Kd: 1300 nM
  ΔG: -8.34 kcal/mol
  ΔH: -8.3 kcal/mol
[11]
  Kd: 6.8 nM
  ΔG: -11.6 kcal/mol
  ΔH: -30.2 kcal/mol

B2: ALKAL2^H100A (residues 78-152) (ligand, human, UniProt Q6UX46 78-152, looked up)
chain: PSPEQRVEIVPRDLRMKDKFLKALTGPLYFSPKCSKHFHRLYHNTRDCTIPAYYKRCARLLTRLAVSPVCMEDKQ
notes: range 78-152; Avi-tagged and biotinylated in BLI; also called ALKAL2 site 2 mutant H100A
[12]
  Kd: 280 nM
  koff: 0.00082 s⁻¹
  kon: 2900 M⁻¹ s⁻¹
[13]
  Kd: 3000 nM
  kon: 53000 M⁻¹ s⁻¹
[14]
  koff: 0.16 s⁻¹

B3: ALKAL2^R123E (residues 78-152) (ligand, human, UniProt Q6UX46 78-152, looked up)
chain: PSPEQRVEIVPRDLRMKDKFLKHLTGPLYFSPKCSKHFHRLYHNTEDCTIPAYYKRCARLLTRLAVSPVCMEDKQ
notes: range 78-152; also called ALKAL2 site 1 mutant R123E
[15]
  Kd: 2300 nM
[16]
  Kd: 3500 nM
